Three molecules from patent US20210115130A1 (Innovent, published 2021) can be followed below.

For assay [1], the target named is T1, IL-23 (R&D Systems, Catalog No. 1290-IL-500/CF) (UniProt Q9NPF7 20-189; P29460 23-328).
T1 sequence (looked up) 1: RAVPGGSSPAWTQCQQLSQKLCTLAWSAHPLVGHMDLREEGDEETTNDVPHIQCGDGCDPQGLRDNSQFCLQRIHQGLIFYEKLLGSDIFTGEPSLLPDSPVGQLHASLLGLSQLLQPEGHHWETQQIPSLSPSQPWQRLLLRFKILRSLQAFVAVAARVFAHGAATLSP
T1 sequence (looked up) 2: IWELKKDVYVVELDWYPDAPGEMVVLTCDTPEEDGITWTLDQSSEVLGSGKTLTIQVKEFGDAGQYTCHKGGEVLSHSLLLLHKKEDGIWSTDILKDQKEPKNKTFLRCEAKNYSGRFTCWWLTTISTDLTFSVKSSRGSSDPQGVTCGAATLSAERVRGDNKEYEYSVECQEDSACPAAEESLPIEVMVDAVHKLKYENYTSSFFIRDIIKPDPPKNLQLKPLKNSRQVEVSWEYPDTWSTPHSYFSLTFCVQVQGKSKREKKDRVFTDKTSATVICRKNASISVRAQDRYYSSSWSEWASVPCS
As to the kind of experiment: cell-based or functional assay.

Assay [2] has as its target cynomolgus monkey IL23 protein (cynomolgus IL12p40 - linker - cynomolgus IL23p19 - His tag) (cynomolgus monkey). The assay is described as follows: ForteBio BLI, antibody on AHQ sensor, 1:1 model. The procedure:
(§1) The ForteBio affinity assay was performed according to the prior art (Estep, P, et al., High throughput solution based measurement of antibody-antigen affinity and epitope binning MAbs, 2013.5(2): p. 270-8). Briefly, the sensor was equilibrated offline in an assay buffer for […], and was equilibrated online for 60 s to establish a baseline. The purified antibodies obtained as described above were loaded online onto an AHQ sensor (ForteBio) for the ForteBio affinity assay. The sensor with the loaded antibodies was then exposed to 100 nM […] antigens for […] before transferring the sensor to the assay buffer for […] of dissociation to measure the dissociation rate. The kinetic analysis was performed using a 1:1 binding model.

Assay [3] addresses T2, human FcRn (Acro, Catalog No. FCM-H5286) (human, UniProt P55899 24-297; P61769 21-119).
T2 construct: Bought protein
As to the kind of experiment: ForteBio Octet RED96 BLI, biotinylated antibody on SA sensor, FcRn in solution, 1:1 model. The procedure:
First, the 17D1 humanized antibody, 17D1-YTE, and Gmab (guselkumab) prepared as described above were labeled with biotin, with the molar ratio of antibody to biotin being 1:3. The biotin was removed using a desalting column and the labeled samples were re-measured and stored for later use.
(§2) An appropriate amount of SA sensor (Fortebio, Catalog No. 18-5019) was soaked in the analysis buffer for 30 min. The biotinylated 17D1 humanized antibody, 17D1-YTE, and Gmab were diluted to 100 nM, and human FcRn (Acro, Catalog No. FCM-H5286) was serially two-fold diluted to 5 concentrations (5, 2.5, 1.25, 0.625, 0.3125 μg/mL). The sensor was first equilibrated in the analysis buffer for 120 s. Then the biotinylated antibodies were loaded on the SA sensor for 100 s of immobilization, and the sensor was equilibrated for another 120 s after immobilization. After the baseline was stabilized, the serially diluted FcRns binded to the sensors with the same antibody immobilization level. After 100 s for binding, the sensors were equilibrated in analysis buffer for 120 s to measure the binding and dissociation. The experimental data were analyzed using a 1:1 model.

Assay [4] addresses T3, human IL23 protein (human IL12p40 - linker - human IL23p19 - His tag) (human, UniProt P29460 23-328; Q9NPF7 21-189).
T3 construct: range 23-328;range 21-189; Single-chain fusion expressed in Expi293 cells; also called IL-23 antigen
T3 sequence: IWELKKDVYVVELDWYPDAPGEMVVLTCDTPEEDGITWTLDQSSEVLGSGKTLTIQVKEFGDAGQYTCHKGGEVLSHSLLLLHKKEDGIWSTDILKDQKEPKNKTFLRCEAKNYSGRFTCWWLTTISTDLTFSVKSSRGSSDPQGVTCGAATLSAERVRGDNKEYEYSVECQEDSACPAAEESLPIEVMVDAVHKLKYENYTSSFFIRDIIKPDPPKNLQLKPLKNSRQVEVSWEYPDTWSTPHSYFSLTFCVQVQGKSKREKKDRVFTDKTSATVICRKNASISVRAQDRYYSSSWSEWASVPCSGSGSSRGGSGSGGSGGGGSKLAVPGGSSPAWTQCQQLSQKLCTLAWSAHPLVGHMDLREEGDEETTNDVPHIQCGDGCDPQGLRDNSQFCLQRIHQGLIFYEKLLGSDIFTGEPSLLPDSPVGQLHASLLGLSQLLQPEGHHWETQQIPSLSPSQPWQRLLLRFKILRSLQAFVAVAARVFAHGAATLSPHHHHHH
As to the kind of experiment: ForteBio BLI, antibody on AHQ sensor, 1:1 model. The procedure: The equilibrium dissociation constant (KD) of the above 17D1 humanized antibody and 17D1-YTE of the present invention to human IL-23p19 was measured by biological optical interferometry (ForteBio).
as §1

The target of assay [5] is T4, human IL-12p40 (ACRO Biosystems, Cat #NK2-H52H7) (human, UniProt P29460 23-328).
T4 construct: Bought protein
T4 sequence (looked up): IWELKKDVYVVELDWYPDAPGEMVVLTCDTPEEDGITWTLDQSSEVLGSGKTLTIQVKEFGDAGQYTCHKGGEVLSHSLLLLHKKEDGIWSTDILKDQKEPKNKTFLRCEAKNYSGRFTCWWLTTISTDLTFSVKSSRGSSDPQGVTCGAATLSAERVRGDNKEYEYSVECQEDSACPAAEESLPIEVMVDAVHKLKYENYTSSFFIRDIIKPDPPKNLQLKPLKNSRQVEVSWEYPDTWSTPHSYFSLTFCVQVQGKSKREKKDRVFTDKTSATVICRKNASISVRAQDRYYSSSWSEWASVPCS
The assay is described as follows: ForteBio BLI, antibody loaded on AHQ sensor. How it is done: as §1
(§3) The equilibrium dissociation constant (KD) for binding of the above 17D1 humanized antibody and 17D1-YTE antibody of the present invention to human interleukin protein human IL-12 (ACRO Biosystems, Cat #IL2-H4210) or human IL-12p40 (ACRO Biosystems, Cat #NK2-H52H7) of the same family was measured by biological optical interferometry (ForteBio) (Table 18).

Assay [6] addresses T5, human IL-12 (ACRO Biosystems, Cat #IL2-H4210) (human, UniProt P29459 23-219; P29460 23-328).
T5 construct: Bought protein
T5 sequence (looked up) 1: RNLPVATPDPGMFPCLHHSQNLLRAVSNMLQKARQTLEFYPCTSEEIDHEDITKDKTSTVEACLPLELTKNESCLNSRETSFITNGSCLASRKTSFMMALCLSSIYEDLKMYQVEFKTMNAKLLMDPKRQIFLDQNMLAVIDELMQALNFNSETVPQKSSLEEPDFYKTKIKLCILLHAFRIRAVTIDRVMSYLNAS
T5 sequence (looked up) 2: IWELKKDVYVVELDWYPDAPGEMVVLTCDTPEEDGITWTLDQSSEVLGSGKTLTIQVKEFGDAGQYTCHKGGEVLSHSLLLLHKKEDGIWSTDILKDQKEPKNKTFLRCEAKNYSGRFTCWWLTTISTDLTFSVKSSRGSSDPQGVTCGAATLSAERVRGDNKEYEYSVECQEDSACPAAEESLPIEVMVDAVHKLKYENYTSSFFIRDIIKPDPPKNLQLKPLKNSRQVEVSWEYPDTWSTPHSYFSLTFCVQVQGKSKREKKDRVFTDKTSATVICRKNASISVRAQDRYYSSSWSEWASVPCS
The assay is described as follows: ForteBio BLI, antibody loaded on AHQ sensor. How it is done:
as §1, §3

For assay [7], the target named is T2, human FcRn (Acro, Catalog No. FCM-H5286). The assay is described as follows: ForteBio Octet RED96 BLI, biotinylated antibody on SA sensor. How it is done:
In this assay, the ForteBio Octet RED96 System was used to detect the kinetic constant (KD) for binding of 17D1 humanized antibody and 17D1-YTE to human FcRn (Acro, Catalog No. FCM-H5286). The affinity of 17D1-YTE to human FcRn was three times those of 17D1 humanized antibody and reference antibody Gmab.
as §2

T2 sequence (P55899 24-297 limits assumed, chain 1 of 2): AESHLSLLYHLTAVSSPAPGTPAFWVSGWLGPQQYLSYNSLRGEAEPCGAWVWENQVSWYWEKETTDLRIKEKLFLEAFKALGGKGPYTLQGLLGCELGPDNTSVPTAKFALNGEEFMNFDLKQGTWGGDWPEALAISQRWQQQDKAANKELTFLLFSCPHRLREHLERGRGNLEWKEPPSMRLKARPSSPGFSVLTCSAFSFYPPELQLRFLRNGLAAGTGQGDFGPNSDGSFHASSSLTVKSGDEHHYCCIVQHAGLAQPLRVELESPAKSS
T2 sequence (P61769 21-119 limits assumed, chain 2 of 2): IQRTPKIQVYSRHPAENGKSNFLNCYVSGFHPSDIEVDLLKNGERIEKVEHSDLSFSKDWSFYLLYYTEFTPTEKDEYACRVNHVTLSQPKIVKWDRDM

B1: guselkumab (antibody)
chain 1: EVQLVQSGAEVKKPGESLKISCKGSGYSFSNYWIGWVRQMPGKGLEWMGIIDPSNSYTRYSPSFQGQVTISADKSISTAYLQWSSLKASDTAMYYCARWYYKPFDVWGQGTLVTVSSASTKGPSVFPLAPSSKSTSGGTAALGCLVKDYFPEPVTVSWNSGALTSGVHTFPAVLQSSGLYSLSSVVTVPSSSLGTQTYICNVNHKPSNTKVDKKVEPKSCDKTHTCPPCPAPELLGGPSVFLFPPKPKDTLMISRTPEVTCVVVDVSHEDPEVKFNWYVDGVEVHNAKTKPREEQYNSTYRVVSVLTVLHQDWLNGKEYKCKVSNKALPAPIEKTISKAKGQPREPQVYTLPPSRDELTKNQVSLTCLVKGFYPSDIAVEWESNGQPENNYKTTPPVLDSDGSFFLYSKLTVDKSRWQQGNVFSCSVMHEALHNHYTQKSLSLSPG
chain 2: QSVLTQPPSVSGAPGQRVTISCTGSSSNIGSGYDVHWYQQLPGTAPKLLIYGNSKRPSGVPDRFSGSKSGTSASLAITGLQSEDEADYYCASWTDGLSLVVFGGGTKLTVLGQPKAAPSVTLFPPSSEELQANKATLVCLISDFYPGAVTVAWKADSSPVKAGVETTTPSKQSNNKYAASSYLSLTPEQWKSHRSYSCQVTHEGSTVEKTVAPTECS
Turning to B1, the “IC50 (inhibition of IL-23-induced IL-17 secretion in mouse splenic lymphocytes, IL-17 ELISA)” value in assay [1] was found to be 124 ng/mL. In assay [2], this molecule had a Kd of 0.941 nM, a Response of 0.284, a koff of 5.8e-05 s⁻¹ and a kon of 61600 M⁻¹ s⁻¹. In assay [3], the Kd turned out to be 13.2 nM, the koff turned out to be 0.0148 s⁻¹ and the kon is 1.12e+06 M⁻¹ s⁻¹. Also, in assay [4], binding was characterised by a dissociation constant (Kd) of 1.04 nM, the koff stood at 0.00012 s⁻¹ and the on-rate constant (kon) is 115000 M⁻¹ s⁻¹.

B2: 17D1 humanized antibody (antibody, human IgG1, kappa)
heavy: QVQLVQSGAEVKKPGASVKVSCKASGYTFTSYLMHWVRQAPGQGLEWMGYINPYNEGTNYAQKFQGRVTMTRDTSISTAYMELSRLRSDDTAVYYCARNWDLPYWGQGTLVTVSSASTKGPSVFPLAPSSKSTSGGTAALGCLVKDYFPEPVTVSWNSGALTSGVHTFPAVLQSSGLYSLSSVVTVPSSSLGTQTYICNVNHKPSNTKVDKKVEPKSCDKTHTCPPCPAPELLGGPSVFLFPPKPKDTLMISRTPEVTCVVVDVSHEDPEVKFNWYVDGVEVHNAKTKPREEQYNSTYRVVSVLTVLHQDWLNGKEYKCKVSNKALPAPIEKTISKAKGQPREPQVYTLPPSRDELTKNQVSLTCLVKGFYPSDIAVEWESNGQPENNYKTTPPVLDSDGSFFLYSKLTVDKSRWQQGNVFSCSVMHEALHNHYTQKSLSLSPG
light: DIQMTQSPSSLSASVGDRVTITCRASQSISDYLHWYQQKPGKAPKLLIKYASQSMSGVPSRFSGSGSGSDFTLTISSLQPEDFATYYCQQGHSFPFTFGQGTKLEIKRTVAAPSVFIFPPSDEQLKSGTASVVCLLNNFYPREAKVQWKVDNALQSGNSQESVTEQDSKDSTYSLSSTLTLSKADYEKHKVYACEVTHQGLSSPVTKSFNRGEC
notes: Biotinylated for the FcRn assay; also called humanized antibody 17D1; copies: 2 + 2
With B2, in assay [1], the “IC50 (inhibition of IL-23-induced IL-17 secretion in mouse splenic lymphocytes, IL-17 ELISA)” value was 113 ng/mL. In assay [2], this molecule displayed a Kd of 1.67 nM, a Response of 0.215, a koff of 8.44e-05 s⁻¹ and a kon of 50400 M⁻¹ s⁻¹. For the same molecule, the binding result in assay [5] is reported as “no binding (tested: 100 nM)”. For the same molecule, the binding result in assay [6] is listed as “no binding (tested: 100 nM)”. Moreover, in assay [3], the Kd turned out to be 12.3 nM, the koff worked out at 0.0141 s⁻¹ and the kon was found to be 1.15e+06 M⁻¹ s⁻¹. In assay [4], this molecule displayed a Kd of 1.75 nM, a koff of 0.000164 s⁻¹ and a kon of 93700 M⁻¹ s⁻¹.

B3: 17D1-YTE (antibody, human IgG1, kappa)
heavy: QVQLVQSGAEVKKPGASVKVSCKASGYTFTSYLMHWVRQAPGQGLEWMGYINPYNEGTNYAQKFQGRVTMTRDTSISTAYMELSRLRSDDTAVYYCARNWDLPYWGQGTLVTVSSASTKGPSVFPLAPSSKSTSGGTAALGCLVKDYFPEPVTVSWNSGALTSGVHTFPAVLQSSGLYSLSSVVTVPSSSLGTQTYICNVNHKPSNTKVDKKVEPKSCDKTHTCPPCPAPELLGGPSVFLFPPKPKDTLYITREPEVTCVVVDVSHEDPEVKFNWYVDGVEVHNAKTKPREEQYNSTYRVVSVLTVLHQDWLNGKEYKCKVSNKALPAPIEKTISKAKGQPREPQVYTLPPSRDELTKNQVSLTCLVKGFYPSDIAVEWESNGQPENNYKTTPPVLDSDGSFFLYSKLTVDKSRWQQGNVFSCSVMHEALHNHYTQKSLSLSPG
light: DIQMTQSPSSLSASVGDRVTITCRASQSISDYLHWYQQKPGKAPKLLIKYASQSMSGVPSRFSGSGSGSDFTLTISSLQPEDFATYYCQQGHSFPFTFGQGTKLEIKRTVAAPSVFIFPPSDEQLKSGTASVVCLLNNFYPREAKVQWKVDNALQSGNSQESVTEQDSKDSTYSLSSTLTLSKADYEKHKVYACEVTHQGLSSPVTKSFNRGEC
notes: Biotinylated for the FcRn assay; also called 17D1-YTE antibody; copies: 2 + 2
On to B3, for which the “fold affinity against 17D1 humanized antibody and Gmab” value in assay [7] is 3 fold. In assay [1], the “IC50 (inhibition of IL-23-induced IL-17 secretion in mouse splenic lymphocytes, IL-17 ELISA)” value was 114 ng/mL. The results for the Kd in assay [2], in assay [3] and in assay [4] were 0.37 nM, 3.34 nM and 0.611 nM, respectively. Further, in assay [2], the Response was 0.207. For the same molecule, the koff amounted to 2.16e-05 s⁻¹ in assay [2], 0.0033 s⁻¹ in assay [3] and 5.69e-05 s⁻¹ in assay [4]. Further, the kon in assay [2] worked out at 58400 M⁻¹ s⁻¹; in assay [3] it was 988000 M⁻¹ s⁻¹; in assay [4] it was 93100 M⁻¹ s⁻¹. In addition, the binding result in assay [5] and in assay [6] was “no binding (tested: 100 nM)” in each case.
